{
  "source": "patent US20240425885",
  "assay_in_all_cases": "cleavage_in_vitro",
  "key": {"[1]": {"system": "T1, OMNI-91 (metagenomic, unknown)", "T1 sequence": "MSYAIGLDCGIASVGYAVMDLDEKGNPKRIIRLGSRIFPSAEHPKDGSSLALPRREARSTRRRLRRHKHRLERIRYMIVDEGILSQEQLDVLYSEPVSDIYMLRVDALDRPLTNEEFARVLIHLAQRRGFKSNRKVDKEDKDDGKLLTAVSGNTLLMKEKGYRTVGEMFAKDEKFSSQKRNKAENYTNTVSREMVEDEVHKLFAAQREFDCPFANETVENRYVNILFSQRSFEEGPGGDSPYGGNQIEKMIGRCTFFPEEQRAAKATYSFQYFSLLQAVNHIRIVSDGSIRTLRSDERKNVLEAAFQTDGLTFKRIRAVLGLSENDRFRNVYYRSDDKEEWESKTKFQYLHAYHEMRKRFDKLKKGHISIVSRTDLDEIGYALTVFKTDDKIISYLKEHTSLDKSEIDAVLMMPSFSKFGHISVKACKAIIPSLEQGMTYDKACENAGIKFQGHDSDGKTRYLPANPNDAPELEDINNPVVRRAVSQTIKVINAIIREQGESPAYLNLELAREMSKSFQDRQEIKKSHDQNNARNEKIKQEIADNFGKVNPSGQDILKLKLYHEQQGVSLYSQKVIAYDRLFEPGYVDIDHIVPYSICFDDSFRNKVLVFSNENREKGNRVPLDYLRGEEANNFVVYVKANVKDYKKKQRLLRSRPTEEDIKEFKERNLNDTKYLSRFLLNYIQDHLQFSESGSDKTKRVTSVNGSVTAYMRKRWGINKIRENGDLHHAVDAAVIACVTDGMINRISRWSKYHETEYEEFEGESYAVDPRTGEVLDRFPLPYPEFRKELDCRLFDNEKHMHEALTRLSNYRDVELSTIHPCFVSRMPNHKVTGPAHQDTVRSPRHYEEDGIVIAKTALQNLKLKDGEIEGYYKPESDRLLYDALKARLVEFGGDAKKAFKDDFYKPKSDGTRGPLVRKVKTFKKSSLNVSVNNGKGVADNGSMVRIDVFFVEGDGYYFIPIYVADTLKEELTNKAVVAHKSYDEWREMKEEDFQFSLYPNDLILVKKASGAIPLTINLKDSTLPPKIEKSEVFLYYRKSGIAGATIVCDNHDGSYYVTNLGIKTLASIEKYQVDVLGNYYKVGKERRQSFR", "settings": "TXTL; PAM NNGNRTNN"}, "[2]": {"system": "T2, OMNI-129 (metagenomic, unknown)", "T2 sequence": "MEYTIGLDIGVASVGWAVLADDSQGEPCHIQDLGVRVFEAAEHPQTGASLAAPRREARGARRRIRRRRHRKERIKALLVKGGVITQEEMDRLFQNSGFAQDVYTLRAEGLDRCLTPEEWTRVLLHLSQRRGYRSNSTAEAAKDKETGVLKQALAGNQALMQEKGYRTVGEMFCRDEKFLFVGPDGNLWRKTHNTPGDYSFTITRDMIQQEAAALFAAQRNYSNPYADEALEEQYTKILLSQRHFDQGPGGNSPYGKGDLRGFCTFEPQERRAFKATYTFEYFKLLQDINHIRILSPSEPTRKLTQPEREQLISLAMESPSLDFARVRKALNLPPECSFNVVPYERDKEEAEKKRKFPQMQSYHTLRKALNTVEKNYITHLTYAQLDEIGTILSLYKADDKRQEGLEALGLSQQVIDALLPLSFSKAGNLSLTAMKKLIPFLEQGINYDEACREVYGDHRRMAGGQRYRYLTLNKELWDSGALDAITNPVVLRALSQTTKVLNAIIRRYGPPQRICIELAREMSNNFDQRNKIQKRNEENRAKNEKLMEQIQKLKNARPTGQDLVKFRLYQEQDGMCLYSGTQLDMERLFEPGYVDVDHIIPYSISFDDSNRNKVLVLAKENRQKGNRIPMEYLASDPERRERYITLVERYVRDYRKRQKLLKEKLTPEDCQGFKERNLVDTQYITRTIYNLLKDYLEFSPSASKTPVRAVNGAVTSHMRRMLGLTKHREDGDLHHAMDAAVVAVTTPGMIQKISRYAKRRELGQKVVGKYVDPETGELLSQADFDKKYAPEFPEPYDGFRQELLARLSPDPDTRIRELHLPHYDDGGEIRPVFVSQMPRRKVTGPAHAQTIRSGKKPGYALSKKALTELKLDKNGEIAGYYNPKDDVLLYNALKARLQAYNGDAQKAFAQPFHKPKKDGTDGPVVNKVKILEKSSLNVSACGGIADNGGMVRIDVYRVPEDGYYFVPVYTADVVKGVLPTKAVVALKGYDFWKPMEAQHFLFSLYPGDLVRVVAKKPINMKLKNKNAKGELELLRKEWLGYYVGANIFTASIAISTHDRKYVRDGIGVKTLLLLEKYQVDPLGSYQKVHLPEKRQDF", "settings": "TXTL; PAM NNNNGAAA"}, "[3]": {"system": "T3, OMNI-128 (metagenomic, unknown)", "T3 sequence": "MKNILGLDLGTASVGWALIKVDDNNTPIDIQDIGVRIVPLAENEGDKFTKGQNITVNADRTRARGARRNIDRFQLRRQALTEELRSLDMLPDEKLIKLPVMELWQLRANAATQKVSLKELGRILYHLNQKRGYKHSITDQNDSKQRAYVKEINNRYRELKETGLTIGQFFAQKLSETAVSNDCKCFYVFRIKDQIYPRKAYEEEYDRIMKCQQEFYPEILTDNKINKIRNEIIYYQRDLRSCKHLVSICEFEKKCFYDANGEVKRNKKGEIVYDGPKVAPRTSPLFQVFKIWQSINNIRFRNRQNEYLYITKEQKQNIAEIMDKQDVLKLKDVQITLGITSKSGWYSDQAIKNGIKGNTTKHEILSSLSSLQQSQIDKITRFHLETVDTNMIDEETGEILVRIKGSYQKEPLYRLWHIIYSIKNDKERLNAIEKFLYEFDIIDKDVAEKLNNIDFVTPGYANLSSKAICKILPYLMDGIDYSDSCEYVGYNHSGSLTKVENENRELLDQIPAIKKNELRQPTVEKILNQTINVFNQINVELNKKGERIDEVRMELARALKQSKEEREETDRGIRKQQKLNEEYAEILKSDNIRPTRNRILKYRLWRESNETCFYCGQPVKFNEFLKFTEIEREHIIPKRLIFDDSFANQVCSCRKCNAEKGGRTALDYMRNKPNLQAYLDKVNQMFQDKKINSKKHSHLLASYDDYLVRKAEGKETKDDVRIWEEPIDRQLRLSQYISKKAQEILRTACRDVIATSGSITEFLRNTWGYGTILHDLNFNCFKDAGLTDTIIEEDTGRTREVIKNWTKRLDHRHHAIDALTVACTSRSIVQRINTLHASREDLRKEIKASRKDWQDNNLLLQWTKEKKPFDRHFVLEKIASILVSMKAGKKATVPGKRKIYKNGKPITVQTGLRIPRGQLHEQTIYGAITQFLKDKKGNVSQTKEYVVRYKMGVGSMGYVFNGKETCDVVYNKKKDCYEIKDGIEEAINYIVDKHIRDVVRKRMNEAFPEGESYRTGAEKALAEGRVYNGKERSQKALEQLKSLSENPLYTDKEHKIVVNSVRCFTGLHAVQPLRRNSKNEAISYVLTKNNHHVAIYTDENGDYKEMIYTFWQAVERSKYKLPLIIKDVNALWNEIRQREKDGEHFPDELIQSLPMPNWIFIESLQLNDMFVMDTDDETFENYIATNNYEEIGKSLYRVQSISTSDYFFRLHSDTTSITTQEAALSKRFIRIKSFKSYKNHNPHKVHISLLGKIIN", "settings": "TXTL; PAM NRYHCCNN"}, "[4]": {"system": "T4, OMNI-131 (metagenomic, unknown)", "T4 sequence": "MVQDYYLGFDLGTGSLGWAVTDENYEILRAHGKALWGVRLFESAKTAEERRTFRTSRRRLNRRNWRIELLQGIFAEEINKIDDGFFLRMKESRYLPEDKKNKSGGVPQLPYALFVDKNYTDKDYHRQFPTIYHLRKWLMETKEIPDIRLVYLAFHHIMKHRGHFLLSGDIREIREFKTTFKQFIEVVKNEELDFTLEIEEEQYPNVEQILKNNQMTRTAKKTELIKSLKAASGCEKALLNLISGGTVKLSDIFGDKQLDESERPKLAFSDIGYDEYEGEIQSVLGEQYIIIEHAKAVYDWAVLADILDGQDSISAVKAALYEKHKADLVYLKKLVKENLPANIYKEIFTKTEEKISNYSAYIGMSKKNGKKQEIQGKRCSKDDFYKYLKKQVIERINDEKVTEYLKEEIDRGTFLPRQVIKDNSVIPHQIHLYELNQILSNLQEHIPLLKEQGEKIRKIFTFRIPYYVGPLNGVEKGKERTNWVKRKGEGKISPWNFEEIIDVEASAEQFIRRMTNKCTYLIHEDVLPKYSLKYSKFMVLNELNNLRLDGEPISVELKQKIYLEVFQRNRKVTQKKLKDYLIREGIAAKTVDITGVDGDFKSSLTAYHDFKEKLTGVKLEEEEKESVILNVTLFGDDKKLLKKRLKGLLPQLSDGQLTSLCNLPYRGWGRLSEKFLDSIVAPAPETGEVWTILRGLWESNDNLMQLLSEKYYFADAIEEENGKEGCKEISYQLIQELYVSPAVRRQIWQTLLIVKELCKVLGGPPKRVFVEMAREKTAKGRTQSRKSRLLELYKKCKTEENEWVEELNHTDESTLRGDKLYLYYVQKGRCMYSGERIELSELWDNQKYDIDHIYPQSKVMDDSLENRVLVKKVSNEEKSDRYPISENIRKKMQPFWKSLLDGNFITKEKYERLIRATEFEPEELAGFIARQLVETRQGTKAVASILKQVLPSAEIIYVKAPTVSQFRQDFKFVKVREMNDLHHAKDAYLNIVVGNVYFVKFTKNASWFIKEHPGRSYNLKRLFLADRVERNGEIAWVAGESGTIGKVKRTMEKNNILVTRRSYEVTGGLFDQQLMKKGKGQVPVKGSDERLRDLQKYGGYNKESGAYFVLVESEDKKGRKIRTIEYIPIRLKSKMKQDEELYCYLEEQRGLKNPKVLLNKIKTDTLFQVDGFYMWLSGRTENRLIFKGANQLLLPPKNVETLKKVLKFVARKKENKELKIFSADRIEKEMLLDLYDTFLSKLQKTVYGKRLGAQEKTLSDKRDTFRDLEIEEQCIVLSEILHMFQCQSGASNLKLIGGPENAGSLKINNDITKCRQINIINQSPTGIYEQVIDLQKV", "settings": "TXTL; PAM NRWRCCNN"}},
  "data": [
    {"sequence": "GGAAGAGCAGAGCCUUGGUCUCGUUGUAGUCCCCUCGUAGUGAAAACUAUCAGGUCACUACAAUAAAGUAGAACACUGAAAAGCUCUGACGGCCCACUUUCCGUGGGUCGUCAUCUUUUUU / GGAAGAGCAGAGCCTTGGTCTCNNNNNNNN / NNNNNNNNGAGACCAAGGCTCTGCTCTTCC [T2 sgRNA 2 V1 ; T2 protospacer + 8N PAM library (pbPOS T2)]", "values": [
      {"measurement": "activity (1-depletion score)", "setting": "[1]", "result": 0.96}
    ]},
    {"sequence": "GGAAGAGCAGAGCCUUGGUCUCGUUGUAGUUCCCUAAUGUUGAAAGACAUUAGGUUACUGCGAUCAGGCAGUAUGCCUCAGAGCUCCGCCCUAACCACGUUUUGUGGUUGGGGCGUCUUUGCAUUUUUU / GGAAGAGCAGAGCCTTGGTCTCNNNNNNNN / NNNNNNNNGAGACCAAGGCTCTGCTCTTCC [T2 sgRNA 30 V1 ; T2 protospacer + 8N PAM library (pbPOS T2)]", "values": [
      {"measurement": "activity (1-depletion score)", "setting": "[2]", "result": 0.95}
    ]},
    {"sequence": "GGAAGAGCAGAGCCUUGGUCUCGUUGUGAUUUGCUGAAGAAAUUCAGCAAAUCACAAUAAGGAUUAUUCCGUUGUGAAAACAUUCAAGGCGGCGCAAGUCGCCUUUUUU / GGAAGAGCAGAGCCTTGGTCTCNNNNNNNN / NNNNNNNNGAGACCAAGGCTCTGCTCTTCC [T2 sgRNA 29 V1 ; T2 protospacer + 8N PAM library (pbPOS T2)]", "values": [
      {"measurement": "activity (1-depletion score)", "setting": "[3]", "result": 0.87}
    ]},
    {"sequence": "GGAAGAGCAGAGCCUUGGUCUCGUUUGAGAAUGAUGUAAGAAAUUACAUCAUAAGUUCAAAUAACGAUUUAUCGAAGACGCCGUUUAUAACGGCCCACAGUGAGUGGAAAGAAAGCUGUUGCUCAUAGGAGCAGCAGUUUUUU / GGAAGAGCAGAGCCTTGGTCTCNNNNNNNN / NNNNNNNNGAGACCAAGGCTCTGCTCTTCC [T2 sgRNA 31 V1 ; T2 protospacer + 8N PAM library (pbPOS T2)]", "values": [
      {"measurement": "activity (1-depletion score)", "setting": "[4]", "result": 0.95}
    ]}
  ]
}
